From paper PMC3526285
pKd: −log10 of the molar value.

Tested on: TRMT10C (native, untagged, in complex);SDR5C1 (Homo sapiens;Homo sapiens)
Assay: EMSA
Settings: concentration refers to TRMT10C content; EMSA: 1 nM 5'-labelled pre-tRNA, 10 nM-1.2 uM protein, methylation/processing buffer (composition not in material) + 100 mM sucrose, 30 min at room …

**Q.** (mt)pre-tRNAHis was tested. Which pKd did it give?
**A.** 6.84

**Q.** With (mt)pre-tRNAIle as the substance, how does the pKd read?
**A.** 7.06
